The target in assay [1] is T1, human calcitonin receptor (human, UniProt P30988 25-474).
T1 construct: whole, on cells; Membranes in a scintillation proximity assay (Assay VII); also called hCTR; hCT
T1 sequence (looked up): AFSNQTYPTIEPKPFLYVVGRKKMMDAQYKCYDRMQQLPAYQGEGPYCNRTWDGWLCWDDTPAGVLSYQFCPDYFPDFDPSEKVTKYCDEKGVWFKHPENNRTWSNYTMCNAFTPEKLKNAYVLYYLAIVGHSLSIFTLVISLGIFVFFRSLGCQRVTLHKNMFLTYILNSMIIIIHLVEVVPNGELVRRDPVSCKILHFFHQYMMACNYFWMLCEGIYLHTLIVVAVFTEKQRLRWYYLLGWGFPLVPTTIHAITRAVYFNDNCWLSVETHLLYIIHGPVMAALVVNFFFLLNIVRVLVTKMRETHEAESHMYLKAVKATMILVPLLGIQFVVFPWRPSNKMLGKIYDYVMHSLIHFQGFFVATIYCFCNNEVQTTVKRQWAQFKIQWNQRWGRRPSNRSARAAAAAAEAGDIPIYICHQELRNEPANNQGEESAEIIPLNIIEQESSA
The experiment in a line: SPA competition binding, displacement of 125I-calcitonin from membranes with human calcitonin receptor (Assay VII). How it is done: Membranes were prepared in the following way; the cells were rinsed with PBS and incubated with Versene for approximately 5 min before harvesting. The cells were flushed with PBS and the cell-suspension was centrifuged for 5 min at 1000 rpm. Cells were homogenized (Ultrathurrax) in a buffer containing 20 mM Na-HEPES and 10 mM EDTA (pH 7.4) and centrifuged at 20.000 rpm for 15 min. The resulting pellet was resuspended, homogenized and centrifuged (20.000 rpm, 15 min) in a buffer containing 20 mM Na-HEPES and 0.1 mM EDTA (pH 7.4, buffer 2). The resulting pellet was resuspended in buffer 2 and protein concentration was measured (BCA protein Assay, Pierce). The homogenate was kept cold during the whole procedure. The membranes were kept at −80° C. until use. Assay was performed in a 384 well Optiplate (PerkinElmer) in a total volume of 40 ul. Membranes were mixed with SPA beads. Final concentration of membranes 35 ng/μL final and Final concentration of SPA beads was 0.05 mg/well. Test-compounds were dissolved in DMSO and further diluted in assay buffer (50 mM Hepes, pH 7.4, 1 mM CaCl2, 5 mM MgCl₂, 0.1% OA and 0.02% Tween20). […] The final mixture was incubated for 120 min with shaking at 400 rpm at 25° C. prior to centrifugation (1500 rpm, 10 min). Samples were analyzed on TopCounter™ (Packard). The […] was calculated using (one site binding competition analysis) GraphPad Prism5 as a measure of receptor affinity.
For orientation: Loss of bound radioactivity is the signal in a displacement assay; it reports binding, not function.

Assay [2] has as its target T2, human calcitonin receptor (human, UniProt P30988 25-474).
T2 construct: whole, on cells; Used as cell membranes; also called hCTR; hCT
T2 sequence (looked up): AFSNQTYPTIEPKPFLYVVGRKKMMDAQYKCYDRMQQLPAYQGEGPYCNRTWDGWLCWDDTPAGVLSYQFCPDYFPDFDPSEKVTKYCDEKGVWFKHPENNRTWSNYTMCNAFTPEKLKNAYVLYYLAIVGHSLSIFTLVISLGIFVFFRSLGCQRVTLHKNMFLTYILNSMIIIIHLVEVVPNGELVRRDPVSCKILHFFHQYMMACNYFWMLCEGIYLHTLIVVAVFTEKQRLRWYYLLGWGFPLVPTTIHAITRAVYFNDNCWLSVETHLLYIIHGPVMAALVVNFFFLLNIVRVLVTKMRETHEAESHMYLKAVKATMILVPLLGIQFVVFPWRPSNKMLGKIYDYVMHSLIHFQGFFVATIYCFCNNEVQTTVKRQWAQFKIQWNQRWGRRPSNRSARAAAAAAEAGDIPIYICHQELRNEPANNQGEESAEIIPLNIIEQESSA
The experiment in a line: ratio of hCTR IC50 to hAmylin-R IC50 (reference: human amylin receptor). The method, boiled down:
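Scintillation proximity competition binding on cell membranes at 35 ng/μL with SPA beads, in 50 mM Hepes pH 7.4, 1 mM CaCl2, 5 mM MgCl₂, 0.1% OA, 0.02% Tween20. Incubated 120 min at 25° C with shaking. IC₅₀ from one-site competition fit.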

The target in assay [3] is T3, human amylin receptor (amylin 3(a) receptor: human calcitonin receptor with RAMP-3) (human, UniProt P30988 25-474; O60896 24-148).
T3 construct: whole, on cells; Used as cell membranes of the Amylin 3(a)/CRE-luc BHK cells; the species of RAMP-3 is only implied by the name human amylin receptor; also called hAmylin-R; hAmylinR
T3 sequence (looked up) 1: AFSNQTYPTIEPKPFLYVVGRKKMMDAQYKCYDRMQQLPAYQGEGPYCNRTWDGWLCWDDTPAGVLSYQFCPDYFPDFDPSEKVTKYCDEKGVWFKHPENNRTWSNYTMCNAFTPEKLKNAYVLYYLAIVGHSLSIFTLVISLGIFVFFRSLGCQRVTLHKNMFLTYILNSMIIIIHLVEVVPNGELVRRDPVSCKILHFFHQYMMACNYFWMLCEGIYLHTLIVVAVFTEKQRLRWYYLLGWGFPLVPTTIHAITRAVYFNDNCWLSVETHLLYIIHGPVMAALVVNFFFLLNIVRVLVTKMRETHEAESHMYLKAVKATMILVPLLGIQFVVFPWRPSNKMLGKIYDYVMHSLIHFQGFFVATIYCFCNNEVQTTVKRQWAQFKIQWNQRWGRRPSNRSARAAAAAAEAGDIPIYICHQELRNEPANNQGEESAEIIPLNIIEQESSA
T3 sequence (looked up) 2: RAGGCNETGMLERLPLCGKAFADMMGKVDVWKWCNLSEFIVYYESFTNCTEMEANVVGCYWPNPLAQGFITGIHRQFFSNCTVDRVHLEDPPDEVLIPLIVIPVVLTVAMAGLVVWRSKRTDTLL
The experiment in a line: SPA competition on BHK cell membranes, 125I-rat amylin as radioligand (Assay V). How it is done:
The binding assay was performed using scintillation proximity assay (SPA) beads (RPNQ0001) from PerkinElmer and cell membranes from the Amylin 3(a)/CRE-luc cells (as described in Assay (II)) were used. Membranes were prepared in the following way; the cells were rinsed with PBS and incubated with Versene for approximately 5 min before harvesting. The cells were flushed with PBS and the cell-suspension was centrifuged for 5 min at 1000 rpm. Cells were homogenized (ultrathurrax) in a buffer containing 20 mM Na-HEPES and 10 mM EDTA (pH 7.4) and centrifuged at 20.000 rpm for 15 min. The resulting pellet was resuspended, homogenized and centrifuged (20.000 rpm, 15 min) in a buffer containing 20 mM Na-HEPES and 0.1 mM EDTA (pH 7.4, buffer 2). The resulting pellet was resuspended in buffer 2 and protein concentration was measured (BCA protein Assay, Pierce). The homogenate was kept cold during the whole procedure. The membranes were kept at −80° C. until use. The assay was performed in a 384 well Optiplate (PerkinElmer) in a total volume of 40 ul. Membranes were mixed with SPA beads. Final concentration of membranes 35 ng/μL final and SPA beads was 0.05 mg/well. Test-compounds were dissolved in DMSO and further diluted in assay buffer (50 mM Hepes, pH 7.4, 1 mM CaCl2, 5 mM MgCl₂, 0.1% OA and 0.02% Tween20). […] The final mixture was incubated with shaking at 400 rpm for 120 min at 25° C. prior to centrifugation (1500 rpm, 10 min). Samples were analyzed on TopCounter™ (Packard). The IC₅₀ was calculated using (one site binding competition analysis) GraphPad Prism5 as a measure of receptor affinity.

Assay [4] addresses T2, human calcitonin receptor. Kind of assay: SPA competition on BHK cell membranes, 125I-calcitonin as radioligand (Assay VII). The method, boiled down:
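BHK hCTR membranes 35 ng/μL + SPA beads 0.05 mg/well; buffer 50 mM Hepes pH 7.4, 1 mM CaCl2, 5 mM MgCl₂, 0.1% OA, 0.02% Tween20. 120 min, 25° C., shaking. Scintillation count; IC50 by one-site binding competition.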

Numbered stars: 1 amine (or outer) side, 2 acyl side, 3 side chain; on linkers, the order of the positions; unused ones are H or OH. Bridge positions count the residues as written; N and C are the ends. Square brackets hold non-standard residues; d marks the D form. Side chains are listed from the residue outwards. Ends that are not written are not given here. * marks the point of attachment. C20 diacid = O=C(O)CCCCCCCCCCCCCCCCCCC(=O)*; γGlu = O=C(O)[C@H](CCC(=O)[*:2])N[*:1]; C14 diacid = O=C(O)CCCCCCCCCCCCC(=O)*

In general, IC50 refers to the concentration that inhibits the measured activity by half. As for K([γGlu-γGlu-C20 diacid])CNTATCATQRLA[dD]FLRHSSPNFGAIPSSTNVGSRTY-NH2 (disulfide 2-7 (inferred)), the IC50 in assay [1] stood at 112 nM.

B1: N^ε1-[(4S)-4-carboxy-4-(13-carboxytridecanoylamino)butanoyl]-[Arg17,Pro21,Pro27,His34]-h-amylin (peptide)
peptide: K([γGlu-C14 diacid])CNTATCATQRLANFLRHSSPNFGAIPSSTNVGHNTY-NH2
modifications: disulfide 2-7; N-terminus assumed
SMILES: CC[C@H](C)[C@H](NC(=O)[C@H](C)NC(=O)CNC(=O)[C@H](Cc1ccccc1)NC(=O)[C@H](CC(N)=O)NC(=O)[C@@H]1CCCN1C(=O)[C@H](CO)NC(=O)[C@H](CO)NC(=O)[C@H](Cc1c[nH]cn1)NC(=O)[C@H](CCCNC(=N)N)NC(=O)[C@H](CC(C)C)NC(=O)[C@H](Cc1ccccc1)NC(=O)[C@H](CC(N)=O)NC(=O)[C@H](C)NC(=O)[C@H](CC(C)C)NC(=O)[C@H](CCCNC(=N)N)NC(=O)[C@H](CCC(N)=O)NC(=O)[C@@H](NC(=O)[C@H](C)NC(=O)[C@@H]1CSSC[C@H](NC(=O)[C@@H](N)CCCCNC(=O)CC[C@H](NC(=O)CCCCCCCCCCCCC(=O)O)C(=O)O)C(=O)N[C@@H](CC(N)=O)C(=O)N[C@@H]([C@@H](C)O)C(=O)N[C@@H](C)C(=O)N[C@@H]([C@@H](C)O)C(=O)N1)[C@@H](C)O)C(=O)N1CCC[C@H]1C(=O)N[C@@H](CO)C(=O)N[C@@H](CO)C(=O)N[C@H](C(=O)N[C@@H](CC(N)=O)C(=O)N[C@H](C(=O)NCC(=O)N[C@@H](Cc1c[nH]cn1)C(=O)N[C@@H](CC(N)=O)C(=O)N[C@H](C(=O)N[C@@H](Cc1ccc(O)cc1)C(N)=O)[C@@H](C)O)C(C)C)[C@@H](C)O
Take B1: the “Ratio hCT/hAmylin binding” value in assay [2] is 23.5. In addition, the half-maximal inhibitory concentration (IC50) came to 1.04 nM in assay [3] and 24.3 nM in assay [4].

B2: N^-1-[(4S)-4-carboxy-4-(19-carboxynonadecanoylamino)butanoyl]-Gly[Arg1,His14,Arg17,Pro21,Pro27,His34]-h-amylin (peptide)
peptide: {C20 diacid-γGlu}-GRCNTATCATQRLAHFLRHSSPNFGAIPSSTNVGHNTY-NH2
modifications: disulfide 3-8
SMILES: CC[C@H](C)[C@H](NC(=O)[C@H](C)NC(=O)CNC(=O)[C@H](Cc1ccccc1)NC(=O)[C@H](CC(N)=O)NC(=O)[C@@H]1CCCN1C(=O)[C@H](CO)NC(=O)[C@H](CO)NC(=O)[C@H](Cc1c[nH]cn1)NC(=O)[C@H](CCCNC(=N)N)NC(=O)[C@H](CC(C)C)NC(=O)[C@H](Cc1ccccc1)NC(=O)[C@H](Cc1c[nH]cn1)NC(=O)[C@H](C)NC(=O)[C@H](CC(C)C)NC(=O)[C@H](CCCNC(=N)N)NC(=O)[C@H](CCC(N)=O)NC(=O)[C@@H](NC(=O)[C@H](C)NC(=O)[C@@H]1CSSC[C@H](NC(=O)[C@H](CCCNC(=N)N)NC(=O)CNC(=O)CC[C@H](NC(=O)CCCCCCCCCCCCCCCCCCC(=O)O)C(=O)O)C(=O)N[C@@H](CC(N)=O)C(=O)N[C@@H]([C@@H](C)O)C(=O)N[C@@H](C)C(=O)N[C@@H]([C@@H](C)O)C(=O)N1)[C@@H](C)O)C(=O)N1CCC[C@H]1C(=O)N[C@@H](CO)C(=O)N[C@@H](CO)C(=O)N[C@H](C(=O)N[C@@H](CC(N)=O)C(=O)N[C@H](C(=O)NCC(=O)N[C@@H](Cc1c[nH]cn1)C(=O)N[C@@H](CC(N)=O)C(=O)N[C@H](C(=O)N[C@@H](Cc1ccc(O)cc1)C(N)=O)[C@@H](C)O)C(C)C)[C@@H](C)O
notes: 38 residues; also called compound 100
For B2, the “Ratio hCT/hAmylin binding” value in assay [2] came to 65.3. Moreover, the IC50 in assay [3] was determined as 1.01 nM; in assay [4], 66.3 nM.

B3: N^ε1-[(4S)-4-carboxy-4-[[(4S)-4-carboxy-4-(19-carboxynonadecanoylamino)butanoyl]amino]butanoyl]-[Arg17,Pro21,Pro27,His34]-h-amylin (peptide)
peptide: K([γGlu-γGlu-C20 diacid])CNTATCATQRLANFLRHSSPNFGAIPSSTNVGHNTY-NH2
modifications: disulfide 2-7; N-terminus assumed
SMILES: CC[C@H](C)[C@H](NC(=O)[C@H](C)NC(=O)CNC(=O)[C@H](Cc1ccccc1)NC(=O)[C@H](CC(N)=O)NC(=O)[C@@H]1CCCN1C(=O)[C@H](CO)NC(=O)[C@H](CO)NC(=O)[C@H](Cc1c[nH]cn1)NC(=O)[C@H](CCCNC(=N)N)NC(=O)[C@H](CC(C)C)NC(=O)[C@H](Cc1ccccc1)NC(=O)[C@H](CC(N)=O)NC(=O)[C@H](C)NC(=O)[C@H](CC(C)C)NC(=O)[C@H](CCCNC(=N)N)NC(=O)[C@H](CCC(N)=O)NC(=O)[C@@H](NC(=O)[C@H](C)NC(=O)[C@@H]1CSSC[C@H](NC(=O)[C@@H](N)CCCCNC(=O)CC[C@H](NC(=O)CC[C@H](NC(=O)CCCCCCCCCCCCCCCCCCC(=O)O)C(=O)O)C(=O)O)C(=O)N[C@@H](CC(N)=O)C(=O)N[C@@H]([C@@H](C)O)C(=O)N[C@@H](C)C(=O)N[C@@H]([C@@H](C)O)C(=O)N1)[C@@H](C)O)C(=O)N1CCC[C@H]1C(=O)N[C@@H](CO)C(=O)N[C@@H](CO)C(=O)N[C@H](C(=O)N[C@@H](CC(N)=O)C(=O)N[C@H](C(=O)NCC(=O)N[C@@H](Cc1c[nH]cn1)C(=O)N[C@@H](CC(N)=O)C(=O)N[C@H](C(=O)N[C@@H](Cc1ccc(O)cc1)C(N)=O)[C@@H](C)O)C(C)C)[C@@H](C)O
notes: also called compound 86
With B3, in assay [2], the “Ratio hCT/hAmylin binding” value is 159. For the same molecule, the 50% inhibitory concentration (IC50) in assay [3] stood at 0.833 nM; in assay [4], 133 nM.
